Assay results from IntAct's records for PubMed 8940099.

B1: NF-kappa-B inhibitor alpha (Homo sapiens), P25963 (parent)
chain: MFQAAERPQEWAMEGPRDGLKKERLLDDRHDSGLDSMKDEEYEQMVKELQEIRLEPQEVPRGSEPWKQQLTEDGDSFLHLAIIHEEKALTMEVIRQVKGDLAFLNFQNNLQQTPLHLAVITNQPEIAEALLGAGCDPELRDFRGNTPLHLACEQGCLASVGVLTQSCTTPHLHSILKATNYNGHTCLHLASIHGYLGIVELLVSLGADVNAQEPCNGRTALHLAVDLQNPDLVSLLLKCGADVNRVTYQGYSPYQLTWGRPSTRIQQQLGQLTLENLQMLPESEDEESYDTESEFTEFTEDELPYDDCVFGGQRLTL
partner: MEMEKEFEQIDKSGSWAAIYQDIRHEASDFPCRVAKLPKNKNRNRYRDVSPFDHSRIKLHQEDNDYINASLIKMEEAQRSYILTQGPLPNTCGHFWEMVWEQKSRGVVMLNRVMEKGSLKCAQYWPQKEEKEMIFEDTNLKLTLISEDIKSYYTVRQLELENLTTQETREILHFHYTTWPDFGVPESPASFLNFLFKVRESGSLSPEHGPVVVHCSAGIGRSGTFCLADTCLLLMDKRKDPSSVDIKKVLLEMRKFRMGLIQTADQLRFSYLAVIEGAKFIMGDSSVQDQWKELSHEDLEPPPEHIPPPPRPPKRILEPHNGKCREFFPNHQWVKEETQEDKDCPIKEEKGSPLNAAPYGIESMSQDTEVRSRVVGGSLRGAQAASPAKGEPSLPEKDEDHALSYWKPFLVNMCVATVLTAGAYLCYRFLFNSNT

Variants of: B1
Settings: with ptn1_human PTPN1, P18031

| Variant | effect of a mutation on the interaction |
| --- | --- |
| Y42F | disrupting interaction |
